Measured values: PMC8914023

What was measured:
[1] = biological target: F-actin (rabbit muscle actin filaments) (rabbit) (UniProt P68135); experiment: SPR
[2] = biological target: EhP3 (Entamoeba histolytica 14-3-3 protein isoform 3) (Entamoeba histolytica); experiment: SPR; Autolab ESPIRIT; EhP3 immobilised; EhActo flowed at increasing concentrations; 10 mM HEPES, 0.2 mM calcium acetate, 0.005% Triton-X100; 25°C
Chain of EhP3 (Entamoeba histolytica 14-3-3 protein isoform 3) (Entamoeba histolytica) (C4M0F4 whole entry, canonical isoform): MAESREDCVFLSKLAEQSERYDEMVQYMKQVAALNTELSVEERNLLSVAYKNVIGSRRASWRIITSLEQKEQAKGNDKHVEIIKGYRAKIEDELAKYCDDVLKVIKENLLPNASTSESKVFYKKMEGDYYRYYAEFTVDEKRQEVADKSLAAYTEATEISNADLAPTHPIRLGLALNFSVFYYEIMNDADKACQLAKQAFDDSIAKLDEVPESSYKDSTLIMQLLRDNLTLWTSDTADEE

## Entamoeba histolytica actophorin (EhActo) (from UniProt C4LVG4 1-138) (natural protein)
[1]
  Kd: 249 nM
[2]
  Kd: 1000 nM
